Measured values from patent publication US12428489 (University of Texas, dated 2025).
Numbering of substitutions follows the chain as printed. One block for each binder: values may come before it.

Experiments:
[1] = biological target: T1, PD-L2 on CHO-PD-L2 cells (human, UniProt Q9BQ51 20-273); assay: cell-based or functional assay
T1 sequence: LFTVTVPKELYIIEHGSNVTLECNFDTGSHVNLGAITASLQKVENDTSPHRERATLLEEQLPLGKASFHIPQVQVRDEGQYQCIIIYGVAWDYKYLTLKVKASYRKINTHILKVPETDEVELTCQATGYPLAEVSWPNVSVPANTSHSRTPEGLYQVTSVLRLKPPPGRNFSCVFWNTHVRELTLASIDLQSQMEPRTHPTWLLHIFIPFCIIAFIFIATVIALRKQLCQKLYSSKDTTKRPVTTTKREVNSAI

[2] = biological target: T1, PD-L2 on CHO-PD-L2 cells; assay: cell-based or functional assay; remark: listed apart in the source
[3] = biological target: T1, PD-L2 on CHO-PD-L2 cells; assay: cell-based or functional assay; remark: listed apart in the source
[4] = biological target: T2, Cyno PD-L2-Fc (cyno, UniProt A0A2K5U5Z4 20-220); assay: ForteBio Octet, IgG KD, Cyno PD-L2-Fc, avid
T2 construct: not shown: Fc part
T2 sequence: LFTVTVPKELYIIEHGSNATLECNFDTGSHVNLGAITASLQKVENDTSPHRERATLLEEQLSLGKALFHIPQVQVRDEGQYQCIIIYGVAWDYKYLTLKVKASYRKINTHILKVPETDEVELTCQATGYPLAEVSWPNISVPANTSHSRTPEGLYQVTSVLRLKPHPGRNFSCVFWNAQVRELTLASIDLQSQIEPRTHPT
Description: (§1) ForteBio K_D measurements—ForteBio affinity measurements were performed on an Octet RED384 generally as previously described (see, e.g., Estep et al., High throughput solution-based measurement of antibody-antigen affinity and epitope binning. Mabs 5(2), 270-278 (2013)). Briefly, ForteBio affinity measurements were performed by loading IgGs on-line onto AHQ sensors. Sensors were equilibrated off-line in assay buffer for 30 min and then monitored on-line for 60 seconds for baseline establishment. Sensors with loaded IgGs were exposed to 100 nM antigen for 3 minutes, and afterwards were transferred to assay buffer for 3 min for off-rate measurement. For monovalent affinity assessment Fabs were used instead of IgGs. For this assessment the unbiotinylated Fc fusion antigen was loaded on-line onto the AHQ sensors. Sensors were equilibrated off-line in assay buffer for 30 min and then monitored on-line for 60 seconds for baseline establishment. Sensors with loaded antigen were exposed to 100 nM Fab for 3 minutes, and afterwards they were transferred to assay buffer for 3 min for off-rate measurement. All kinetics were analyzed using the 1:1 binding model.

[5] = biological target: T3, Human PD-L2-Fc (human, UniProt Q9BQ51 20-220); assay: ForteBio Octet, IgG KD, Human PD-L2-Fc, avid
T3 construct: also called Fc fusion antigen; not shown: Fc part
T3 sequence: T2 sequence with A19V, S62P, L67S, I139V, H166P, A178T, Q179H, I194M

[6] = biological target: T4, Mouse PD-L2-Fc (mouse, UniProt Q9WUL5 20-219); assay: ForteBio Octet, IgG KD, Mouse PD-L2-Fc, avid
T4 construct: not shown: Fc part
T4 sequence (looked up): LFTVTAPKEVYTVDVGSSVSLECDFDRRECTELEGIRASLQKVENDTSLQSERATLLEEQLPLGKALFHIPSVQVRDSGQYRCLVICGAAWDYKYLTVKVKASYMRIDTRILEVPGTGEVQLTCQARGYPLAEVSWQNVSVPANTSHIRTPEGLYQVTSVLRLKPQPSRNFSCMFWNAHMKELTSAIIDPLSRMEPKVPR

[7] = biological target: T5, Human PD-L2-HIS (human, UniProt Q9BQ51 20-220); assay: IgG KD, Human PD-L2-HIS, monovalent (method not named in the table: ForteBio or MSD-SET)
T5 construct: also called HIS-tagged protein (human PD-L2); not shown: HIS tag
T5 sequence: T2 sequence with A19V, S62P, L67S, I139V, H166P, A178T, Q179H, I194M

[8] = biological target: T6, human PD-L2 protein (human, UniProt Q9BQ51 20-220, limits assumed); assay: MFI against Ab nM; legend: binding to human PD-L2 protein, maximum fluorescence intensity, ForteBio Octet
T6 construct: also called analyte (PD-L2)
T6 sequence: T2 sequence with A19V, S62P, L67S, I139V, H166P, A178T, Q179H, I194M
Description: Antibody Screening and Characterization. Antibody candidates generated from the presentation methods described above were tested for the capacity to bind to PD-L2 and block its binding to PD-1. 5 µg/mL of antibody was bound to CHO-PD-L2 cells and then recombinant PD-1 (RnD Systems) labelled with Alexa 532 (ThermoFisher) was added for 1 hour. PD-1 maximum fluorescence intensity was measured. Blockade of PD-1 binding was measured by reduction in Alexa 532 fluorescence by flow cytometry. […] The binding and release of the analyte (PD-L2) are recorded by the Octet instrument in real time and then used to calculate the KD, $Kon$, and $Kdis$; results are derived from 2:1 Global Fit Modeling with reference well subtraction. […]
PD-L2 antibodies avidly bind human PD-L2. […] Antibody subclones were immobilized on Anti-Human Fc Capture (AHC) Biosensors at 100 nM (15 μg/mL), and human PD-L2 protein association and dissociation was tested in dilution series from 30-0.37 nM (FIGS. 4A-B).

[9] = biological target: T1, PD-L2 on CHO-PD-L2 cells; assay: cell surface binding, panel 'Binding Assay PD-L2', MFI against Ab nM (flow cytometry on PD-L2 expressing cells)
[10] = biological target: T3, Human PD-L2-Fc; assay: ForteBio Octet, Fab KD, Human PD-L2-Fc on sensor, monovalent
Description: as §1

[11] = biological target: T1, PD-L2 on CHO-PD-L2 cells; assay: cell-based or functional assay; remark: listed apart in the source
[12] = biological target: T1, PD-L2 on CHO-PD-L2 cells; assay: competition assay by flow cytometry: antibody against Biotin-rhPD-1-Fc on PD-L2 expressing cells, Streptavidin-APC; axis 'Antibodies µg (logX)'

IC50 (Promega PD-1:PD-L2 bioassay, luciferase) [1]: 0.41 nM
EC50 (read off the curve) [2]: ~0.4 nM
EC50 (read off the curve) [3]: ~0.2 nM
Kd [4]: 0.3 nM
Kd [5]: 0.331 nM
Kd [6]: 0.503 nM
Kd [7]: 0.0025 nM
EC50 (read off the curve) [8]: ~0.7 nM
EC50 (read off the curve) [9]: ~0.7 nM
B1: ADI-20810 (anti-PD-L2 antibody 20810), IgG (antibody, V domains shown)
VH: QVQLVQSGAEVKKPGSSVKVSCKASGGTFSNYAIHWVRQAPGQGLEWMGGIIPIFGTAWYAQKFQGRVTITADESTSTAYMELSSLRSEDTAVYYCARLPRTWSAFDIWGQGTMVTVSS
VL: EIVLTQSPATLSLSPGERATLSCRASQSVSSYLAWYQQKPGQAPRLLIYDASNRATGIPARFSGSGSGTDFTLTISSLEPEDFAVYYCQQVVTLPPTFGGGTKVEIK
notes: Tested as full-length IgG

Kd [10]: 0.267 nM
B2: ADI-20810 Fab (Fab, V domains shown)
VH: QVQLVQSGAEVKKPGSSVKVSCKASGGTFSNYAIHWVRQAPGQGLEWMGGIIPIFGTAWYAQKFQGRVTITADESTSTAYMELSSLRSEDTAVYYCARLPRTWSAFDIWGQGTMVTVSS
VL: B1 VL

Kd [10]: 0.21 nM
B3: ADI-20811 Fab (Fab, V domains shown)
VH: QVQLVQSGAEVKKPGSSVKVSCKASGGTFSSAAIHWVRQAPGQGLEWMGGIIPIFGLAQYAQKFQGRVTITADESTSTAYMELSSLRSEDTAVYYCARLPRTWSAFDIWGQGTMVTVSS
VL: B1 VL

IC50 (Promega PD-1:PD-L2 bioassay, luciferase) [1]: 0.24 nM
EC50 (read off the curve) [3]: ~0.2 nM
Kd [4]: 0.231 nM
Kd [5]: 0.248 nM
Kd [6]: 0.259 nM
Kd [7]: 0.0085 nM
EC50 (read off the curve) [8]: ~0.3 nM
B4: ADI-20811 (anti-PD-L2 antibody 20811), IgG (antibody, V domains shown)
VH: B3 VH
VL: B1 VL
notes: Tested as full-length IgG

IC50 (Promega PD-1:PD-L2 bioassay, luciferase) [Cont'd] [11]: 0.38 nM
EC50 (read off the curve) [3]: ~0.3 nM
Kd [4]: 0.296 nM
Kd [5]: 0.116 nM
Kd [6]: 21.6 nM
Kd [7]: 0.052 nM
EC50 (read off the curve) [8]: ~0.9 nM
B5: ADI-20816 (anti-PD-L2 antibody 20816), IgG (antibody, V domains shown)
VH: QVQLVQSGAEVKKPGSSVKVSCKASGGTFSSYLIAWVRQAPGQGLEWMGGIIPHFGVANYAQKFQGRVTITADESTSTAYMELSSLRSEDTAVYYCARVPQYHGYFDLWGRGTLVTVSS
VL: DIQMTQSPSSVSASVGDRVTITCRASQGISSWLAWYQQKPGKAPKLLIYAASNLQSGVPSRFSGSGSGTDFTLTISSLQPEDFATYYCQQGNSFPTFGGGTKVEIK
notes: Tested as full-length IgG; Clone family 55-g1

Kd [10]: 0.268 nM
B6: ADI-20816 Fab (Fab, V domains shown)
VH: B5 VH
VL: B5 VL

IC50 (read off the curve) [12]: ~0.006 µg
B7: anti-PD-L2 antibody 16510 (antibody, human IgG1, V domains shown)
VH: B5 VH with L33A, A35S, H54I, V57T, P100Q, Q101K, Y102Q, H103Y, G104T
VL: DIQLTQSPSSLSASVGDRVTITCQASQDISNFLNWYQQKPGKAPKLLIYDASNLETGVPSRFSGSGSGTDFTFTISSLQPEDIATYYCQQLVGAPPTFGGGTKVEIK
